± gives the uncertainty stated by the source.
Test: self-splicing fitness, log relative to wild type (ln ratio); higher = more splicing; Tetrahymena group I intron in knt gene, E. coli kanamycin selection, DiMSum; sequences stand for … in CUCUCU…GGAGGGAAAAGUUAUCAGGCAUGCACCUGGUAGCUAGUCUUUAAACCAAUAGAUUGCAUCGGUUUAAAAGGCAAGACCGUCAAAUUGCGGGAAAGGGGUCAACAGCCGUUCAGUACCAAGUCUCAGGGGAAACUUUGAGAUGGCCUUGCAAAGGGUAUGGUAAUAAGCUGACGGACAUGGUCCUAACCACGCAGCCAAGUCCUAAGUCAACAGAUCUUCUGUUGAUAUGGAUGCAGUUCACAGACUAAAUGUCGGUCGGGGAAGAUGUAUUCUUCUCAUAAGAUAUAGUCGGACCUCUCCUUAAUGGGAGCUAGCGGAUGAAGUGAUGCAACACUGGAGCCGCUGGGAACUAAUUUGUAUGCGAAAGUAUAUUGAUUAGUUUUGGAGUACUCGUGGUCG
Outline: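 Colonies from six replicate transformations of E. coli BL21(DE3) were pooled and amplicon-sequenced on an Illumina HiSeq 2500. The library placed an intron with all eight P1ex-region nucleotides randomised inside the knt kanamycin-resistance gene on pET-22b(+), and cells grew overnight at 37°C or 30°C on LB agar with or without 25 μg/mL kanamycin (plus 100 μg/mL carbenicillin, 50 μM IPTG, 0.2% rhamnose). Fitness is the DiMSum error-weighted combination of wild-type-normalised replicate fold changes, kanamycin versus none.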

Sequence	self-splicing fitness (ln) (30 °C)	self-splicing fitness (ln) (37 °C)
GGAAAGCAAUAUUACGUGGU	-3.11 ± 0.18	-1.9 ± 0.16
UGCCAGCAAUAUUACGCCAA	-1.24 ± 0.15	-1.8 ± 0.21
CGUCAGCAAUAUUACGUAGA	-1.3 ± 0.069	-0.865 ± 0.1
UCGAAGCAAUAUUACGGUGA	-0.813 ± 0.077	0.158 ± 0.091
AAAUAGCAAUAUUACGACCG	-0.956 ± 0.15	-0.441 ± 0.19
CAAUAGCAAUAUUACGUUGG	-1.9 ± 0.099	-1.3 ± 0.11
GUUGAGCAAUAUUACGGUAA	-2.51 ± 0.27	-2.49 ± 0.35
AUCCAGCAAUAUUACGACUA	-0.459 ± 0.097	-0.0254 ± 0.084
AGAUAGCAAUAUUACGGCGG	-0.92 ± 0.12	-1.04 ± 0.15
AGUUAGCAAUAUUACGAGUG	-3.77 ± 0.31	-1.78 ± 0.25
AAAGAGCAAUAUUACGAUUA	-2.18 ± 0.22	-0.939 ± 0.17
AUGGAGCAAUAUUACGCUGU	-2.13 ± 0.21	-1.37 ± 0.44
AUGCAGCAAUAUUACGAGGU	-3.04 ± 0.16	-2.27 ± 0.13
UCCAAGCAAUAUUACGCACU	-2.28 ± 0.15	-0.918 ± 0.14
CAGCAGCAAUAUUACGCCUU	-0.761 ± 0.097	-0.274 ± 0.1
GCAAAGCAAUAUUACGCUAC	-2.2 ± 0.16	-2.09 ± 0.26
UGAUAGCAAUAUUACGAGCG	-0.553 ± 0.11	0.433 ± 0.15
UUGAAGCAAUAUUACGGGCA	0.114 ± 0.11	0.502 ± 0.13
UAGGAGCAAUAUUACGCCUG	-3.57 ± 0.47	-1.23 ± 0.33
UCACAGCAAUAUUACGGACG	-1.22 ± 0.073	-0.222 ± 0.091
GUUAAGCAAUAUUACGAACG	-2.01 ± 0.28	-1.16 ± 0.31
AAUAAGCAAUAUUACGCCGC	-2.65 ± 0.46	-1.49 ± 0.28
AUCAAGCAAUAUUACGUCGA	-1.36 ± 0.068	-0.157 ± 0.068
ACAUAGCAAUAUUACGCACC	-1.83 ± 0.18	0.273 ± 0.18

Sequence	self-splicing fitness (ln) (30 °C)	self-splicing fitness (ln) (37 °C)
AAGUAGCAAUAUUACGCGCG	-0.335 ± 0.087	-0.184 ± 0.12
AGCCAGCAAUAUUACGGCGU	-1.61 ± 0.09	-1.44 ± 0.12
UGAAAGCAAUAUUACGGUGG	-1.22 ± 0.063	-1.44 ± 0.093
AACCAGCAAUAUUACGGUUU	-3.26 ± 0.12	-2.96 ± 0.17
GUACAGCAAUAUUACGUUAG	-2.37 ± 0.15	-1.74 ± 0.17
UGGCAGCAAUAUUACGUGUU	-3.93 ± 0.19	-2.2 ± 0.12
AGAGAGCAAUAUUACGCGUA	-2.46 ± 0.27	-2.08 ± 0.48
CCGUAGCAAUAUUACGGCGA	-2.54 ± 0.21	-2.62 ± 0.25
AACAAGCAAUAUUACGUGCG	-1.17 ± 0.05	-0.476 ± 0.064
CAGUAGCAAUAUUACGGAGU	-3.34 ± 0.36	-2.67 ± 0.26
AGUAAGCAAUAUUACGGGGU	-3.24 ± 0.22	-2.46 ± 0.26
CCUCAGCAAUAUUACGAGGU	-3.38 ± 0.21	-2.62 ± 0.19
UGCCAGCAAUAUUACGACGG	-3.23 ± 0.12	-1.42 ± 0.13
UGUGAGCAAUAUUACGGAAA	-2.62 ± 0.38	-2.61 ± 0.31
CUGCAGCAAUAUUACGCCUG	-2.21 ± 0.28	-1.14 ± 0.28
GAAUAGCAAUAUUACGUUGA	-2.6 ± 0.13	-0.487 ± 0.09
GCACAGCAAUAUUACGUCGU	-0.704 ± 0.083	0.241 ± 0.091
UAGCAGCAAUAUUACGAUAA	-1.07 ± 0.12	0.133 ± 0.13
UUCGAGCAAUAUUACGUUGU	-2.49 ± 0.18	-2.75 ± 0.24
CUUGAGCAAUAUUACGACCG	-1.68 ± 0.19	-1.16 ± 0.26
CGGUAGCAAUAUUACGCGAA	-2.83 ± 0.25	-1.28 ± 0.19
UUGCAGCAAUAUUACGAGUA	-1.92 ± 0.16	-1.42 ± 0.15
CAACAGCAAUAUUACGGGUC	-4.17 ± 0.17	-2.66 ± 0.14
